# Measured values reported in IntAct's records for PubMed 29039417.
# B1: BBSome complex member BBS2 (Homo sapiens), Q9BXC9 (parent)
# chain: MLLPVFTLKLRHKISPRMVAIGRYDGTHPCLAAATQTGKVFIHNPHTRNQHVSASRVFQSPLESDVSLLSINQAVSCLTAGVLNPELGYDALLVGTQTNLLAYDVYNNSDLFYREVADGANAIVLGTLGDISSPLAIIGGNCALQGFNHEGSDLFWTVTGDNVNSLALCDFDGDGKKELLVGSEDFDIRVFKEDEIVAEMTETEIVTSLCPMYGSRFGYALSNGTVGVYDKTSRYWRIKSKNHAMSIHAFDLNSDGVNELITGWSNGKVDARSDRTGEVIFKDNFSSAIAGVVEGDYRMDGHIQLICCSVDGEIRGYLPGTAEMRGNLMDTSAEQDLIRELSQKKQNLLLELRNYEENAKAELASPLNEADGHRGIIPANTRLHTTLSVSLGNETQTAHTELRISTSNDTIIRAVLIFAEGIFTGESHVVHPSIHNLSSSICIPIVPPKDVPVDLHLKAFVGYRSSTQFHVFESTRQLPRFSMYALTSLDPASEPISYVNFTIAERAQRVVVWLGQNFLLPEDTHIQNAPFQVCFTSLRNGGHLHIKIKLSGEITINTDDIDLAGDIIQSMASFFAIEDLQVEADFPVYFEELRKVLVKVDEYHSVHQKLSADMADHSNLIRSLLVGAEDARLMRDMKTMKSRYMELYDLNRDLLNGYKIRCNNHTELLGNLKAVNQAIQRAGRLRVGKPKNQVITACRDAIRSNNINTLFKIMRVGTASS
# partner: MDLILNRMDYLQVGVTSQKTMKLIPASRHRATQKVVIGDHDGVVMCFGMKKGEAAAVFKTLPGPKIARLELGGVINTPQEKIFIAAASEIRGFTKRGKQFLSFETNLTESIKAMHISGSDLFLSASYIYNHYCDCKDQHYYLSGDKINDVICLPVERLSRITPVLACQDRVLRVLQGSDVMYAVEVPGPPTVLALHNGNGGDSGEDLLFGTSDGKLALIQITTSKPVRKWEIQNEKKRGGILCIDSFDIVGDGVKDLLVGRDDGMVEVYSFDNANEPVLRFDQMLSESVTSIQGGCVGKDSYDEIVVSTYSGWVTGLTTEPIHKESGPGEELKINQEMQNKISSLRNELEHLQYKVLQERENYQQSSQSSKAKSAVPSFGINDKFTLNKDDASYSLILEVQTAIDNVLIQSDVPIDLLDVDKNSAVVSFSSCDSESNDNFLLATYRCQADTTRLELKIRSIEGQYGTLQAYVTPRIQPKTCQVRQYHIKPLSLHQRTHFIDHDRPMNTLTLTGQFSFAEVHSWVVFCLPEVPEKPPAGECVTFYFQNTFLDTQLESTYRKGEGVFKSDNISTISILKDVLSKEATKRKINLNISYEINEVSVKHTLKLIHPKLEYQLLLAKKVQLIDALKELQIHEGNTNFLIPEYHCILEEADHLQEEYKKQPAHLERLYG
# Variants of: B1
# Conditions: with BBS7, Q8IWZ6-2
row,Variant,effect of a mutation on the interaction
1,K549E,with no effect
2,N436E,with no effect
3,I441R,disrupting interaction strength
4,I441E,disrupting interaction strength
5,I441K,with no effect
6,R635C,disrupting interaction strength
7,V429K,with no effect
8,V429A,with no effect
9,R643K,with no effect
10,F535A,with no effect
11,N393E,with no effect
12,R594E,with no effect
13,R594A,with no effect
14,I338A,with no effect
15,K344A,with no effect
16,D579K,with no effect
17,D579A,with no effect
18,F481E,disrupting interaction strength
19,F481K,disrupting interaction strength
20,Q477A,with no effect
21,L519K,with no effect
22,N664A,with no effect
23,L337E,with no effect
24,D566A,with no effect
25,G717E,with no effect
26,V451K,with no effect

row,Variant,effect of a mutation on the interaction
1,G688R,disrupting interaction strength
2,I577K,with no effect
3,F423A,with no effect
4,G657K,with no effect
5,V687A,with no effect
6,K449A,with no effect
7,Y603A,with no effect
8,G515E,with no effect
9,I713E,with no effect
10,S618A,with no effect
11,R403A,with no effect
12,T475E,with no effect
13,A564K,with no effect
14,S474A,with no effect
15,R632A,with no effect
16,S570A,with no effect
17,P448K,with no effect
18,R703A,with no effect
19,H543E,with no effect
20,E394K,with no effect
21,S388A,with no effect
22,Y658A,with no effect
23,I707K,with no effect
24,L669E,with no effect
25,R509A,with no effect
26,C698E,with no effect

row,Variant,effect of a mutation on the interaction
1,L387A,with no effect
2,P587K,with no effect
3,P587A,with no effect
4,H470E,with no effect
5,H399A,with no effect
6,I679L,disrupting interaction strength
7,I679K,disrupting interaction strength
8,S642K,with no effect
9,Q335E,with no effect
10,T709K,with no effect
11,D330K,with no effect
12,K659A,with no effect
13,I434A,with no effect
14,I434K,with no effect
15,L520K,with no effect
16,L550K,with no effect
17,D585A,with no effect
18,N528E,with no effect
19,A678E,with no effect
20,N380A,with no effect
21,I546E,with no effect
22,H456E,with no effect
23,E340K,with no effect
24,N663E,with no effect
25,I561K,with no effect
26,S551K,with no effect

row,Variant,effect of a mutation on the interaction
1,S551E,with no effect
2,L654K,with no effect
3,L341K,with no effect
4,D409K,with no effect
5,L383E,disrupting interaction strength
6,P530K,with no effect
7,G670C,disrupting interaction strength
8,G670K,with no effect
9,R413A,with no effect
10,Q508A,with no effect
11,F590A,with no effect
12,M640K,with no effect
13,A697K,with no effect
14,A697E,with no effect
15,I404A,with no effect
16,I568A,with no effect
17,L633E,with no effect
18,M329A,with no effect
19,I526K,with no effect
20,I526A,with no effect
21,K691E,with no effect
22,T331K,with no effect
23,S433K,with no effect
24,H525E,with no effect
25,G392K,with no effect
26,F469M,disrupting interaction strength

row,Variant,effect of a mutation on the interaction
1,I376E,with no effect
2,T424A,with no effect
3,D616K,with no effect
4,D616A,with no effect
5,Q343E,with no effect
6,Y484A,disrupting interaction strength
7,H373A,with no effect
8,H373E,with no effect
9,H373K,with no effect
10,I567A,with no effect
11,D523E,with no effect
12,D523A,with no effect
13,S482A,with no effect
14,V415K,with no effect
15,D562E,with no effect
16,Y498K,with no effect
17,Q468A,with no effect
18,V512E,with no effect
19,K673A,with no effect
20,I443K,disrupting interaction strength
21,F418K,with no effect
22,R480A,with no effect
23,S497E,with no effect
24,D636G,disrupting interaction strength
25,D636K,disrupting interaction strength
26,L457A,with no effect

row,Variant,effect of a mutation on the interaction
1,A576K,with no effect
2,H604A,with no effect
3,A398K,with no effect
4,R715E,with no effect
5,K638E,with no effect
6,T718E,with no effect
7,T718K,with no effect
8,E553K,with no effect
9,E553A,with no effect
10,F711A,with no effect
11,E494A,with no effect
12,P495K,with no effect
13,P495E,with no effect
14,E473K,with no effect
15,N656E,with no effect
16,G683E,with no effect
17,F586A,with no effect
18,Q569A,with no effect
19,L350A,with no effect
20,D450E,with no effect
21,D450A,with no effect
22,A333E,with no effect
23,I417E,with no effect
24,F472L,disrupting interaction strength
25,C534E,with no effect
26,R686A,disrupting interaction strength

row,Variant,effect of a mutation on the interaction
1,R686K,with no effect
2,I702A,with no effect
3,T467E,with no effect
4,L367A,with no effect
5,M645A,with no effect
6,V582K,with no effect
7,L593E,with no effect
8,L624A,with no effect
9,L544A,with no effect
10,V533E,disrupting interaction strength
11,S623K,with no effect
12,Q396K,with no effect
13,E583A,with no effect
14,I496E,with no effect
15,A612K,with no effect
16,H384P,disrupting interaction strength
17,K641E,with no effect
18,S332A,with no effect
19,Q581E,with no effect
20,R382E,with no effect
21,L352K,with no effect
22,I503E,with no effect
